Experimental data reported in US9662404B2, “Compositions and methods for the delivery of molecules into live cells” (The Texas A&M University System, priority 2013, dated 2017).
Ends that are not written are not given here.

Experiments:
HeLa cells [1] = test: dTAT-induced cytosolic release of DEAC-K9 trapped inside endosomes; assay type: cell-based; conditions: 5 μM DEAC-K9 1 h, wash, 5 μM dTAT 1 h
Method: FIGS. 8A-8C illustrate that dTAT mediates endosomal escape. (FIG. 8A) Effect of endocytic inhibitors on the cellular distribution of dTAT. HeLa cells were pre-treated with 50 μM amiloride or 200 nM bafilomycin for 30 and 20 min respectively, washed, and incubated with 5 μM dTAT and inhibitor. […] Scale bar, 10 μm. […] A schematic illustration of the experimental steps is shown (top). First, cells were incubated with 5 μM DEAC-K9 for 1 h and washed. Inverted monochrome images show a fluorescence punctuate distribution after incubation with DEAC-K9 alone. The same cells were then incubated with 5 μM dTAT for 1 h. Images show a redistribution of DEAC-K9 to the cytosol and nucleus (inhibited by bafilomycin). Scale bars, 10 μm. (FIG. 8C) The endosomolytic activity of dTAT is highly efficient. HeLa cells expressing SNAPH2B were incubated with 5 μM dTAT and 5 μM SNAP-Surface® 488. Fluorescence images show accumulation of SNAP-Surface® 488 in the nucleus. […] Small panels show cytosolic and nuclear fluorescence of TMR. Scale bars, 10 μm.
To test whether endosomal escape is involved in delivery of dTAT, the effects of amiloride, a macropinocytosis inhibitor, and bafilomycin, an inhibitor of endosomal acidification, were assessed. […] Cells were then washed and incubated with dTAT (FIG. 8B). […] This redistribution was however inhibited by bafilomycin.

HeLa cells [2] = test: Cell viability, SYTOX exclusion assay; assay type: cell-based
Method: (§1) In order to determine cells that had compromised plasma membranes, cells were treated with SYTOX® Green (SYTOX® Blue in some cases) and Hoechst (Invitrogen, Carlsbad, Calif.). SYTOX® dyes are cell-impermeable and stain the DNA of cells with compromised plasma membranes. The Hoechst dye is cell permeable and stains the DNA of all cells. Images were acquired using the green and blue filter. The green and blue images were used to count cells with a blue or green stained nucleus. Image J was used to count the dead (green) and total cells (blue). Cytotoxicity was determined from the ratio of SYTOX® Green positive cells/total number of cells. An MTT-assay was performed to determine the effect of the peptide on cell proliferation. Cells were seeded in a 6-well dish, grown and washed as described above. One well from the dish was incubated with 5 μM dTAT at 37° C. for 1 h. A second well was left untreated and served as control. […] Cells were trypsinized and seeded into 96-well dishes containing 200 μL of DMEM. The cells were then allowed to attach to the bottom of the dish for 12 h. […] After the incubation each sample was mixed and the absorbance at 600 nm was measured. […] A second control consisted of cells treated with the delivery peptide but to which no MTT was added to subtract the contribution of TMR from the measured absorbance. The absorbance of the negative control was subtracted from all samples.

[3] = system: HeLa transfected with the pCALNL-GFP plasmid; assay type: cell-based; conditions: delivery peptide 5 μM in the presence of TAT-Cre 1 μM, 1 h
Method: The number of cells in the images was approximately the same as assessed by bright field microscopy (1,000 cells/experiment, experiments in triplicate, average and standard deviations represented). Scale bars, 100 μM.
To further confirm that functional proteins can penetrate cells upon incubation with dTAT, delivery of Cre recombinase was tested. In this assay, Cre induces recombination of a loxP-STOP-loxP sequence upstream of the egfp gene of a reporter plasmid.

EGFP = EGFP (Aequorea victoria, UniProt P42212, F64L/H231L/S65T); conditions: EGFP 1 μM, dTAT 5 μM, excitation 488 nm
Method: Fluorescence emission spectra were obtained using an SLM-8000C fluorometer upgraded with the phoenix package (ISS, Champaign, Ill.) and Vinci v.1.6 PC software (ISS). The experiments were conducted using a quartz cuvette at room temperature. The samples were excited at 488 nm (slit width=1 mm) and the fluorescence emission was scanned from 500 to 650 nm (slit width=1 mm). All samples (EGFP (1 μM) and dTAT (5 μM)) were prepared using nrL-15.

cells = test: Whole-genome microarray analysis after dTAT treatment; assay type: cell-based; conditions: 5 μM, 1 h; analysis immediately, 1 h or 24 h after treatment
Method: To better determine the effect of dTAT exposure on a cell, a whole-genome microarray analysis was performed on cells treated with 5 μM dTAT for 1 h to determine whether transcriptional patterns are influenced. Analysis was performed immediately, 1 h, or 24 h after dTAT treatment. […] The straight lines represent 2-fold intensity change cut-offs.

HeLa cells [4] = test: Cell proliferation, MTT assay; assay type: cell-based; conditions: 5 μM, 1 h; up to 36 h after incubation
Method: as §1

[5] = system: neuronal cell line Neuro-2a and primary human dermal fibroblasts (HDF); test: Cellular localization of dTAT in neuronal and primary cells; assay type: cell-based; conditions: 1 h incubation
Method: FIG. 11 illustrates the cellular localization of dTAT after 1 h incubation with neuronal cell line Neuro-2a (left panel) and primary human dermal fibroblasts (HDF) (right panel). Cells were incubated with dTAT, washed, and imaged with a 100× objective. […] FIG. 12 graphically illustrates the proliferation rate (absorbance in an MTT assay) of treated and untreated HeLa, Neuro-2a, and HDF cells.

[6] = system: Dorsal root ganglion F11 (DRG-F11) neuronal cells; test: dTAT penetration into cells resistant to transfection; assay type: cell-based; conditions: 5 μM, 1 hour
Method: Dorsal root ganglion F11 (DRG-F11) neuronal cells are notoriously difficult to transfect. dTAT exposure was tested in DRG-F11 cells to determine whether the transfection difficulties also posed a barrier for dTAT. DRG-F11 cells were incubated for 1 hour with dTAT (5 μM).

**Q.** What does the source list for “(CK(TMR)TAT)2 (CK(TMR)RKKRRQRRRG; also: dimer) [dTAT, dimer of two CK(TMR)-TAT monomers linked via a disulfide bond between the N-terminal cysteine residues]”?
**A.** distribution of DEAC-K9 fluorescence after subsequent addition of dTAT (HeLa cells [1]): redistribution of the DEAC signal throughout the cytosol and nucleus; effect on cell viability (HeLa cells [2]; 5 μM): does not affect cell viability; fraction of dead cells (HeLa cells [2]; 5 μM dTAT, 1 h incubation, 1, 24 and 48 h after incubation): below 5%; percentage of EGFP+ cells [3]: 47%; binding to EGFP (EGFP): does not bind to EGFP; transcriptional response on a whole-genome scale (cells): minimal transcriptional perturbations; cell growth versus untreated cells (HeLa cells [4]): grow at the same rate as untreated cells; cellular localization of fluorescence [5]: cytosolic release; penetration into the cytosol [6]: penetrates into the cytosol of DRG-F11 cells
